pKd: −log10 of the molar value.
Columns and labels:
[1] = target: C3b (complement component 3b) (UniProt P01024); test: relative C3b-binding assay, percent of CFH-Risk, detection antibody AbCam OX-24 (#Ab112197)
[2] = target: C3b (complement component 3b) (UniProt P01024); test: relative C3b-binding assay, detection antibody AbCam OX-24 (#Ab112197)
[3] = target: C3b (complement component 3b) (UniProt P01024); test: rank of binding affinity among six proteins, plate-based binding assays
[4] = target: C3b (complement component 3b) (UniProt P01024); test: cell-based or functional assay
[5] = target: C3b (complement component 3b) (UniProt P01024); test: plate-based binding assay, His-tagged recombinant protein from HEK293 cells

Chain of protective CFH-I62-Y402-E936 (full-length complement factor H) (P08603 19-1231 V62I): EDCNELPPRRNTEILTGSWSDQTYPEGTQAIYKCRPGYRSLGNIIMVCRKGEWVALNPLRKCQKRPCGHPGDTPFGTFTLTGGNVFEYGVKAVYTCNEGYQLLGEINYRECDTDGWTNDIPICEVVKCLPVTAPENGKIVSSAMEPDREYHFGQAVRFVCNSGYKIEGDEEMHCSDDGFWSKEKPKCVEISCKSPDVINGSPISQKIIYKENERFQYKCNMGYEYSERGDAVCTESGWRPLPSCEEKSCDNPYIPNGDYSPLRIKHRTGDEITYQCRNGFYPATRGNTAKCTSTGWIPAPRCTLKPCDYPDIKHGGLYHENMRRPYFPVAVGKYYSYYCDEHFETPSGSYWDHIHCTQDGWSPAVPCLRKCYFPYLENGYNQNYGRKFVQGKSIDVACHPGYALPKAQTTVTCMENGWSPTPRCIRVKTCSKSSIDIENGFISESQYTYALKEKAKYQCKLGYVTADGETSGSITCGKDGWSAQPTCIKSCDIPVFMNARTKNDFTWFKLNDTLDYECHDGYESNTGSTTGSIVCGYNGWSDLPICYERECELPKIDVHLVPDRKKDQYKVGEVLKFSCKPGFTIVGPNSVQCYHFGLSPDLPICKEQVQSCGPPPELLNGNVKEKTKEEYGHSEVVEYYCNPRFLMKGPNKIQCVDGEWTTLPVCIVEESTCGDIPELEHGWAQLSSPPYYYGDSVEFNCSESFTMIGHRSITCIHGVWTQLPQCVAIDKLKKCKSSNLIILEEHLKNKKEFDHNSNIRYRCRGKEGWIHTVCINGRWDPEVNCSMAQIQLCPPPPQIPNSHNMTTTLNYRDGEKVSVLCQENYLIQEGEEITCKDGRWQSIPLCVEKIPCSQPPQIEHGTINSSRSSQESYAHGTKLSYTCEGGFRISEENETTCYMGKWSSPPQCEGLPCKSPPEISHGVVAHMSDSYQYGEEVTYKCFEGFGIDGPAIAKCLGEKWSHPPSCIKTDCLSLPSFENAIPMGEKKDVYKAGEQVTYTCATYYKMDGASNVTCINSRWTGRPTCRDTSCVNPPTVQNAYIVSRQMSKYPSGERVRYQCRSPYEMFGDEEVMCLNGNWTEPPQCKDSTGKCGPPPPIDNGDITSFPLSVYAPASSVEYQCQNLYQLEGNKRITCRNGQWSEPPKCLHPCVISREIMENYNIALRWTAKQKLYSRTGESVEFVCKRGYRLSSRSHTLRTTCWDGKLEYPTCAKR
Chain of protective CFHT-I62-Y402 (truncated complement factor H ending in SFTL) (P08603 other isoform, or with tags, fused parts or gaps): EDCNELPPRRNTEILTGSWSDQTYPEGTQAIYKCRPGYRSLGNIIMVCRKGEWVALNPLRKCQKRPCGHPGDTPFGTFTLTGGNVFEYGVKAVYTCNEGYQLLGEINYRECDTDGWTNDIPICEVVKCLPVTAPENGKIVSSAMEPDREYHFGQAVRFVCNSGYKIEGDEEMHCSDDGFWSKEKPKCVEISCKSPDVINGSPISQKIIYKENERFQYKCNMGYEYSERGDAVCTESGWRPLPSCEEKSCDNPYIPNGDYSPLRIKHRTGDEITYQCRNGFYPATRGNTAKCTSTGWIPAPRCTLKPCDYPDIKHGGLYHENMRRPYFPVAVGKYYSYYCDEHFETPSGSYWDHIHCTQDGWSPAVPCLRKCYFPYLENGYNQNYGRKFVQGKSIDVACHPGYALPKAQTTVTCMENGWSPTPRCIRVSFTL
Chain of CFH-Del (CFH of the CFHR3/1 deletion haplotype, V62-Y402-E936) (P08603 19-1231, stated change not applied): as the sequence (P08603 19-1231 V62I) above, with I44V counted along it
Chain of CFHT-Neu/Del (truncated CFH of the neutral and deletion haplotypes, V62-Y402) (P08603 other isoform, or with tags, fused parts or gaps): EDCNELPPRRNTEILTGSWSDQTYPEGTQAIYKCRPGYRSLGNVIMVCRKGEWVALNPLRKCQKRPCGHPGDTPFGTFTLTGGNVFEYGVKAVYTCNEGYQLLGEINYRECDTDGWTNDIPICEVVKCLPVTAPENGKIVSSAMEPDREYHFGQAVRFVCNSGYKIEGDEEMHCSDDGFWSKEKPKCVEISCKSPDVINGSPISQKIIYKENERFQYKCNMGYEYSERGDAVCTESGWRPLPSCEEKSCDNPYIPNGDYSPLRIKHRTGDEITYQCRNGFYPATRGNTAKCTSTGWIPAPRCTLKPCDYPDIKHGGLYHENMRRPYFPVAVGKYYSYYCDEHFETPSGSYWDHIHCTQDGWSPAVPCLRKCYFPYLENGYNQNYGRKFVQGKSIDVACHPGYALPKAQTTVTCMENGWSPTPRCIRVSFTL

Substance	% FH-Risk [1] [%]	Binding Potential [2]	Binding Affinity Rank (1 best to 6 worst) [3] [rank]	Cofactor (IC50 value for iC3b 43-kDa band appearance) [4] [µM]	pKd [5]
CFH-Del (CFH of the CFHR3/1 deletion haplotype, V62-Y402-E936) (from UniProt P08603 19-1231)	107	24	–	–	–
CFH-Neu (neutral variant of full-length CFH, V62-Y402-D936) (from UniProt P08603 19-1231)	134	29	–	–	–
CFH-V62-H402-E936 (risk variant of full-length CFH) (from UniProt P08603 19-1231)	100	22	2	–	–
CFHT-Neu/Del (truncated CFH of the neutral and deletion haplotypes, V62-Y402) (from UniProt P08603 19-445)	15	3	–	–	–
CFHT-V62-H402 (risk variant of truncated CFH) (from UniProt P08603 19-445)	10	2	5	–	–
eCFHT-SE (engineered truncated CFH, I62-Y402, ending in SESFTL) (from UniProt P08603 19-445)	–	–	6	0.0897	6.03
eCFHT-SK (engineered truncated CFH, I62-Y402, ending in SKSFTL) (from UniProt P08603 19-445)	–	–	3	0.037	6.32
protective CFH-I62-Y402-E936 (full-length complement factor H) (from UniProt P08603 19-1231)	133	29	1	0.0092	6.85
protective CFHT-I62-Y402 (truncated complement factor H ending in SFTL) (from UniProt P08603 19-445)	17	4	4	0.0312	6.14

Source: patent US20210338838A1
